Starred links: 1 amine or outer side, 2 acyl side, 3 side chain; linkers in the order of their positions; H or OH if unused. Non-standard residues stand in square brackets, D forms with d. Groups on a side chain read outwards from the residue. Primed or numbered codes have the meaning given here. No end group written: not given here. *: point of attachment. Dodecanoyl(12-OPh(4-COOH)) = O=C(O)c1ccc(OCCCCCCCCCCCC(=O)*)cc1; γGlu = O=C(O)[C@H](CCC(=O)[*:2])N[*:1]; Stearoyl = CCCCCCCCCCCCCCCCCC(=O)*; αMeF = C[C@](N)(Cc1ccccc1)C(=O)O; αMeK = C[C@](N)(CCCCN)C(=O)O; Lauroyl = CCCCCCCCCCCC(=O)*; αMeS = C[C@](N)(CO)C(=O)O; PEG2′ = not defined here; Aib = CC(C)(N)C(=O)O; Ahx = NCCCCCC(=O)O
The binders below were run against T1, GLP-1R (INS1e assay) (UniProt P32301 22-463, limits assumed) (assay: cell-based or functional assay).
T1 sequence (looked up): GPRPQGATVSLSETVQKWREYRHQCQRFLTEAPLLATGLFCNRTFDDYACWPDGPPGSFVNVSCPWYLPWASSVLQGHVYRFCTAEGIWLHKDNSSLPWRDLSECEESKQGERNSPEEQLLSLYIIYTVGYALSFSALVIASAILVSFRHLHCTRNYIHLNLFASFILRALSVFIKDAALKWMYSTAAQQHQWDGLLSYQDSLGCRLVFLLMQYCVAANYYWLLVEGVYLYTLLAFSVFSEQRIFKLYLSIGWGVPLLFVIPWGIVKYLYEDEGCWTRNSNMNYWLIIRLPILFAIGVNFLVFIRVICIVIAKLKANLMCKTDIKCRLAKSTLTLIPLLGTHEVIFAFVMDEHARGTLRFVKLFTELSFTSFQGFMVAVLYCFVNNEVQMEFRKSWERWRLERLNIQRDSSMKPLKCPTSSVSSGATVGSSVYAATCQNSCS

Row | INS1e assay EC50 GLP-1 R n1 [pM] | INS1e assay EC50 GLP-1 R n2 [pM] | INS1e assay EC50 Mean pM GLP-1R [pM] | Binder
1 | 129 | 115 | 122 | H[Aib]EGS[αMeF]TSDV[αMeS]S[αMeF]LEGEAAK([Ahx-Ahx-Lauroyl])E[αMeF]IA[αMeF]VV[αMeK]GG-NH2 (N-terminus assumed; SMILES CCCCCCCCCCCC(=O)NCCCCCC(=O)NCCCCCC(=O)NCCCC[C@H](NC(=O)[C@H](C)NC(=O)[C@H](C)NC(=O)[C@H](CCC(=O)O)NC(=O)CNC(=O)[C@H](CCC(=O)O)NC(=O)[C@H](CC(C)C)NC(=O)[C@](C)(Cc1ccccc1)NC(=O)[C@H](CO)NC(=O)[C@](C)(CO)NC(=O)[C@@H](NC(=O)[C@H](CC(=O)O)NC(=O)[C@H](CO)NC(=O)[C@@H](NC(=O)[C@](C)(Cc1ccccc1)NC(=O)[C@H](CO)NC(=O)CNC(=O)[C@H](CCC(=O)O)NC(=O)C(C)(C)NC(=O)[C@@H](N)Cc1c[nH]cn1)[C@@H](C)O)C(C)C)C(=O)N[C@@H](CCC(=O)O)C(=O)N[C@@](C)(Cc1ccccc1)C(=O)N[C@H](C(=O)N[C@@H](C)C(=O)N[C@@](C)(Cc1ccccc1)C(=O)N[C@H](C(=O)N[C@H](C(=O)N[C@@](C)(CCCCN)C(=O)NCC(=O)NCC(N)=O)C(C)C)C(C)C)[C@@H](C)CC) [SEQ ID NO 132]
2 | 168 | 77.6 | 123 | H[Aib]EGS[αMeF]TSDV[αMeS]S[αMeF]LEGEAAK([PEG2′-Lauroyl])E[αMeF]IA[αMeF]VV[αMeK]GG-NH2 [SEQ ID NO 134]
3 | 98.6 | 59.3 | 79 | H[Aib]EGS[αMeF]TSDV[αMeS]S[αMeF]LEGEAAK([PEG2′-PEG2′-Lauroyl])E[αMeF]IA[αMeF]VV[αMeK]GG-NH2 [SEQ ID NO 135]
4 | 52.6 | 21.5 | 37 | H[Aib]EGS[αMeF]TSDV[αMeS]S[αMeF]LEGEAAK([PEG2′-PEG2′-PEG2′-Lauroyl])E[αMeF]IA[αMeF]VV[αMeK]GG-NH2 [SEQ ID NO 136]
5 | 63.7 | 36.2 | 50 | H[Aib]EGS[αMeF]TSDV[αMeS]S[αMeF]LEGEAAK([γGlu-Dodecanoyl(12-OPh(4-COOH))])E[αMeF]IA[αMeF]VV[αMeK]GG-NH2 (N-terminus assumed; SMILES CC[C@H](C)[C@H](NC(=O)[C@](C)(Cc1ccccc1)NC(=O)[C@H](CCC(=O)O)NC(=O)[C@H](CCCCNC(=O)CC[C@H](NC(=O)CCCCCCCCCCCOc1ccc(C(=O)O)cc1)C(=O)O)NC(=O)[C@H](C)NC(=O)[C@H](C)NC(=O)[C@H](CCC(=O)O)NC(=O)CNC(=O)[C@H](CCC(=O)O)NC(=O)[C@H](CC(C)C)NC(=O)[C@](C)(Cc1ccccc1)NC(=O)[C@H](CO)NC(=O)[C@](C)(CO)NC(=O)[C@@H](NC(=O)[C@H](CC(=O)O)NC(=O)[C@H](CO)NC(=O)[C@@H](NC(=O)[C@](C)(Cc1ccccc1)NC(=O)[C@H](CO)NC(=O)CNC(=O)[C@H](CCC(=O)O)NC(=O)C(C)(C)NC(=O)[C@@H](N)Cc1c[nH]cn1)[C@@H](C)O)C(C)C)C(=O)N[C@@H](C)C(=O)N[C@@](C)(Cc1ccccc1)C(=O)N[C@H](C(=O)N[C@H](C(=O)N[C@@](C)(CCCCN)C(=O)NCC(=O)NCC(N)=O)C(C)C)C(C)C) [SEQ ID NO 137]
6 | 43.2 | 16.7 | 30 | H[Aib]EGS[αMeF]TSDV[αMeS]S[αMeF]LEGEAAK([Ahx-Dodecanoyl(12-OPh(4-COOH))])E[αMeF]IA[αMeF]VV[αMeK]GG-NH2 (N-terminus assumed; SMILES CC[C@H](C)[C@H](NC(=O)[C@](C)(Cc1ccccc1)NC(=O)[C@H](CCC(=O)O)NC(=O)[C@H](CCCCNC(=O)CCCCCNC(=O)CCCCCCCCCCCOc1ccc(C(=O)O)cc1)NC(=O)[C@H](C)NC(=O)[C@H](C)NC(=O)[C@H](CCC(=O)O)NC(=O)CNC(=O)[C@H](CCC(=O)O)NC(=O)[C@H](CC(C)C)NC(=O)[C@](C)(Cc1ccccc1)NC(=O)[C@H](CO)NC(=O)[C@](C)(CO)NC(=O)[C@@H](NC(=O)[C@H](CC(=O)O)NC(=O)[C@H](CO)NC(=O)[C@@H](NC(=O)[C@](C)(Cc1ccccc1)NC(=O)[C@H](CO)NC(=O)CNC(=O)[C@H](CCC(=O)O)NC(=O)C(C)(C)NC(=O)[C@@H](N)Cc1c[nH]cn1)[C@@H](C)O)C(C)C)C(=O)N[C@@H](C)C(=O)N[C@@](C)(Cc1ccccc1)C(=O)N[C@H](C(=O)N[C@H](C(=O)N[C@@](C)(CCCCN)C(=O)NCC(=O)NCC(N)=O)C(C)C)C(C)C) [SEQ ID NO 140]
7 | 44.7 | 36.7 | 41 | H[Aib]EGS[αMeF]TSDV[αMeS]S[αMeF]LEGEAAK([Ahx-Ahx-Dodecanoyl(12-OPh(4-COOH))])E[αMeF]IA[αMeF]VV[αMeK]GG-NH2 (N-terminus assumed; SMILES CC[C@H](C)[C@H](NC(=O)[C@](C)(Cc1ccccc1)NC(=O)[C@H](CCC(=O)O)NC(=O)[C@H](CCCCNC(=O)CCCCCNC(=O)CCCCCNC(=O)CCCCCCCCCCCOc1ccc(C(=O)O)cc1)NC(=O)[C@H](C)NC(=O)[C@H](C)NC(=O)[C@H](CCC(=O)O)NC(=O)CNC(=O)[C@H](CCC(=O)O)NC(=O)[C@H](CC(C)C)NC(=O)[C@](C)(Cc1ccccc1)NC(=O)[C@H](CO)NC(=O)[C@](C)(CO)NC(=O)[C@@H](NC(=O)[C@H](CC(=O)O)NC(=O)[C@H](CO)NC(=O)[C@@H](NC(=O)[C@](C)(Cc1ccccc1)NC(=O)[C@H](CO)NC(=O)CNC(=O)[C@H](CCC(=O)O)NC(=O)C(C)(C)NC(=O)[C@@H](N)Cc1c[nH]cn1)[C@@H](C)O)C(C)C)C(=O)N[C@@H](C)C(=O)N[C@@](C)(Cc1ccccc1)C(=O)N[C@H](C(=O)N[C@H](C(=O)N[C@@](C)(CCCCN)C(=O)NCC(=O)NCC(N)=O)C(C)C)C(C)C) [SEQ ID NO 141]
8 | 45.1 | 22.7 | 34 | H[Aib]EGS[αMeF]TSDV[αMeS]S[αMeF]LEGEAAK([PEG2′-Dodecanoyl(12-OPh(4-COOH))])E[αMeF]IA[αMeF]VV[αMeK]GG-NH2 [SEQ ID NO 143]
9 | 55 | 61.2 | 58 | H[Aib]EGS[αMeF]TSDV[αMeS]S[αMeF]LEGEAAK([PEG2′-PEG2′-Stearoyl])E[αMeF]IA[αMeF]VV[αMeK]GG-NH2 [SEQ ID NO 153]
10 | 32.3 | 17.1 | 25 | H[Aib]EGS[αMeF]TSDV[αMeS]S[αMeF]LEGEAAK([PEG2′-PEG2′-PEG2′-Stearoyl])E[αMeF]IA[αMeF]VV[αMeK]GG-NH2 [SEQ ID NO 154]
11 | 233 | 687 | 460 | H[Aib]EGS[αMeF]TSDV[αMeS]S[αMeF]LEGEAA[αMeK]E[αMeF]IA[αMeF]VVK([γGlu-γGlu-γGlu-Lauroyl])GG-NH2 (N-terminus assumed; SMILES CCCCCCCCCCCC(=O)N[C@@H](CCC(=O)N[C@@H](CCC(=O)N[C@@H](CCC(=O)NCCCC[C@H](NC(=O)[C@@H](NC(=O)[C@@H](NC(=O)[C@](C)(Cc1ccccc1)NC(=O)[C@H](C)NC(=O)[C@@H](NC(=O)[C@](C)(Cc1ccccc1)NC(=O)[C@H](CCC(=O)O)NC(=O)[C@](C)(CCCCN)NC(=O)[C@H](C)NC(=O)[C@H](C)NC(=O)[C@H](CCC(=O)O)NC(=O)CNC(=O)[C@H](CCC(=O)O)NC(=O)[C@H](CC(C)C)NC(=O)[C@](C)(Cc1ccccc1)NC(=O)[C@H](CO)NC(=O)[C@](C)(CO)NC(=O)[C@@H](NC(=O)[C@H](CC(=O)O)NC(=O)[C@H](CO)NC(=O)[C@@H](NC(=O)[C@](C)(Cc1ccccc1)NC(=O)[C@H](CO)NC(=O)CNC(=O)[C@H](CCC(=O)O)NC(=O)C(C)(C)NC(=O)[C@@H](N)Cc1c[nH]cn1)[C@@H](C)O)C(C)C)[C@@H](C)CC)C(C)C)C(C)C)C(=O)NCC(=O)NCC(N)=O)C(=O)O)C(=O)O)C(=O)O) [SEQ ID NO 166]
12 | 189 | 462 | 326 | H[Aib]EGS[αMeF]TSDV[αMeS]S[αMeF]LEGEAA[αMeK]E[αMeF]IA[αMeF]VVK([Ahx-Ahx-Lauroyl])GG-NH2 (N-terminus assumed; SMILES CCCCCCCCCCCC(=O)NCCCCCC(=O)NCCCCCC(=O)NCCCC[C@H](NC(=O)[C@@H](NC(=O)[C@@H](NC(=O)[C@](C)(Cc1ccccc1)NC(=O)[C@H](C)NC(=O)[C@@H](NC(=O)[C@](C)(Cc1ccccc1)NC(=O)[C@H](CCC(=O)O)NC(=O)[C@](C)(CCCCN)NC(=O)[C@H](C)NC(=O)[C@H](C)NC(=O)[C@H](CCC(=O)O)NC(=O)CNC(=O)[C@H](CCC(=O)O)NC(=O)[C@H](CC(C)C)NC(=O)[C@](C)(Cc1ccccc1)NC(=O)[C@H](CO)NC(=O)[C@](C)(CO)NC(=O)[C@@H](NC(=O)[C@H](CC(=O)O)NC(=O)[C@H](CO)NC(=O)[C@@H](NC(=O)[C@](C)(Cc1ccccc1)NC(=O)[C@H](CO)NC(=O)CNC(=O)[C@H](CCC(=O)O)NC(=O)C(C)(C)NC(=O)[C@@H](N)Cc1c[nH]cn1)[C@@H](C)O)C(C)C)[C@@H](C)CC)C(C)C)C(C)C)C(=O)NCC(=O)NCC(N)=O) [SEQ ID NO 168]

— patent publication US20200079833A1 (AstraZeneca / MedImmune, published 2020)
